Results on 6 molecules are retold here after patent publication US20070148201A1 (Pieris, published 2007).

For experiment [1], the target named is T1, type I horse ferritin (horse, UniProt P02791 2-175; Q8MIP0 2-182, limits assumed).
T1 construct: the natural protein is a shell of light and heavy chains
Description: ELISA, ferritin coated on plate, mutein titrated from 1000 nM, anti-T7-HRP detection, apparent KD from curve fit. The procedure: (§1) Afterwards, the wells were washed and blocked as described in Example 8.
(§2) Then, a dilution series of the BBP muteins from Example 11 in SA-buffer was prepared in PBST starting from 1000 nM concentration and incubated for 1 h at room temperature. Subsequently, plates were washed again five times, anti-T7 monoclonal antibody-HRP-conjugate was added and incubated for 1 hour at room temperature followed by washing and addition of fluorogenic HRP-substrate QuantaBlu™ as described in Example 8. After 10 minutes at room temperature fluorescence was excited at a wavelength of 320 nm (±12.5 nm) and measured at 430 nm (±17.5 nm) in a GENiosPlus plate reader.
The resulting binding curves were fitted by non-linear least squares regression as described in Example 8 and are depicted in FIG. 8. The values obtained for the apparent dissociation constants of the complexes between the BBP muteins and the prescribed target ferritin are summarized in Table 5.
A general note: ELISA stands for enzyme-linked immunosorbent assay.

Experiment [2] deals with T2, RNaseB (UniProt P61823 27-150).
T2 construct: also called unrelated control protein RNaseB
T2 sequence (looked up): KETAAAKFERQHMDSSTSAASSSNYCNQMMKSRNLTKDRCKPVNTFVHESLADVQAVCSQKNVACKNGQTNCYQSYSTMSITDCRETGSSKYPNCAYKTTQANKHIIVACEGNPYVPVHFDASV
Description: ELISA: RNaseB coated on the plate as control, BBP mutein titrated 0-1000 nM, detected with anti-T7 antibody-HRP, fluorescence (Example 12). The procedure:
as §1, §2

Experiment [3] concerns the target T1, type I horse ferritin. Description: high-throughput ELISA screening, crude cell extract, ferritin or aldolase coated on plate, anti-T7-HRP detection; Fer-P4 is one of the clones taken on from these 14. The procedure: (§3) For the detection of binding, these cell extracts were tested for their reactivity on the prescribed target type I horse ferri tin as well as the unrelated control protein aldolase in ELISA experiments. Therefore, wells of black Fluotrac 600 ELISA plates (Greiner; 384 well) were coated overnight with 20 μl of a solution of ferritin (Sigma) or aldolase (Roche) at 4° C., each at a concentration of 20 μg/ml in PBS. Plates were washed five times with 100 μl PBST/0.05 per well with an automated ELISA plate washer (Molecular Devices) leaving a residual volume of 10 μl of the washing buffer in each well after the last washing step. Residual binding sites were blocked by incubation with 100 μl PBST/0.05 containing 2% w/v BSA for 2 h at room temperature. Afterwards, plates were again washed five times as described above.
(§4) For complex formation between the BBP muteins and the immobilized proteins, the wells were incubated with 10 μl of the blocked cell extract from above for 1 hour at room temperature. […] After 60 minutes at room temperature fluorescence was excited at a wavelength of 320 nm (±12.5 nm) and measured at 430 nm (±17.5 nm) in a GENiosPlus plate reader (Tecan).

Experiment [4] has as its target T3, extracellular domain of human CD47 (amino acids 1 to 119 of the mature protein, Cys15 to Ala) with Strep-tag … (human, UniProt Q08722 19-139).
T3 construct: Produced in the periplasm of E. coli JM83, purified by the Strep-tag II; 1-119 counts on the mature CD47; also called recombinant CD47
Description: ELISA, CD47 coated on plate, mutein titrated from 2000 nM, anti-T7-HRP detection, apparent KD from curve fit. The procedure: For the detection of binding in an ELISA the wells of a black Fluotrac 600 microtiter plate (Greiner; 384 well) were filled each with 20 μl of a solution of the intended recombinant protein target CD47 (produced as described in Example 2) or the unrelated control protein BSA both at a concentration of 50 μg/ml in PBS and were incubated for 1 h at ambient temperature. After washing five times with 100 μl PBST/0.05 per well employing an automated ELISA plate washer, the wells were filled with 100 μl PBST/0.05 3% w/v non-fat dry milk powder (Vitalia), in order to saturate unspecific binding sites and incubated for one hour at room temperature. After blocking, the microtiter plate was washed two times with 100 μl PBST/0.05 as described above.
Then a dilution series of the muteins in SA-buffer from Example 7 was prepared in PBST starting from 2000 nM concentration and incubated for 1 h at room temperature. Subsequently, plates were washed again five times like above and 20 μl of an anti-T7 monoclonal antibody-HRP-conjugate, diluted 1:1000 in PBST, was added to each well and incubated for 1 hour at room temperature. […] After 10 minutes at room temperature fluorescence was excited at a wavelength of 320 nm (±12.5 nm) and measured at 430 nm (±17.5 nm) in a GENiosPlus plate reader. […]

Experiment [5] has as its target T1, type I horse ferritin. Description: high-throughput ELISA screening, crude cell extract, ferritin or aldolase coated on plate, anti-T7-HRP detection; Fer-N21 is one of the clones taken on from these 14. The protocol: as §3, §4
For experiment [6], the target named is T2, RNaseB. Description: ELISA, RNaseB coated on plate, anti-T7-HRP detection. The procedure: as §1, §2
The target in experiment [7] is T1, type I horse ferritin. The experiment in a line: high-throughput ELISA screening, crude cell extract, ferritin or aldolase coated on plate, anti-T7-HRP detection; Fer-I21 is one of the clones taken on from these 14. The protocol: as §3, §4
Experiment [8] has as its target T1, type I horse ferritin. Description: high-throughput ELISA screening, crude cell extract, ferritin or aldolase coated on plate, anti-T7-HRP detection; Fer-D24 is one of the clones taken on from these 14. The protocol: as §3, §4
For experiment [9], the target named is T1, type I horse ferritin. Description: high-throughput ELISA screening, crude cell extract, ferritin or aldolase coated on plate, anti-T7-HRP detection; Fer-O20 is one of the clones taken on from these 14. The protocol:
as §3, §4

T1 sequence (P02791 2-175 limits assumed, chain 1 of 2): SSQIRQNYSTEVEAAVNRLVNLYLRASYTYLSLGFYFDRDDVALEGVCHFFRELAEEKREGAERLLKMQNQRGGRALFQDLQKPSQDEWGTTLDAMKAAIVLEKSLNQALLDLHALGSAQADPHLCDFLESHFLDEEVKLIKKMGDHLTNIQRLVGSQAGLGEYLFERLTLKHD
T1 sequence (Q8MIP0 2-182 limits assumed, chain 2 of 2): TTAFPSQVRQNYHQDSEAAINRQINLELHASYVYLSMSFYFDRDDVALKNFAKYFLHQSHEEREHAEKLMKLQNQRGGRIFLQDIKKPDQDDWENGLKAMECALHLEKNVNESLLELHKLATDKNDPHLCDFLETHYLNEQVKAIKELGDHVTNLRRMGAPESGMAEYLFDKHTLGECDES
T3 sequence (Q08722 other isoform, or with tags, fused parts or gaps limits assumed): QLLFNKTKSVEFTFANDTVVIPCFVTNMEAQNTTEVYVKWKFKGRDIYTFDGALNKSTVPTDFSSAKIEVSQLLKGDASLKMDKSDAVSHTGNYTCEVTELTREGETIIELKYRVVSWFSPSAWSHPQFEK

B1: BBP mutein Fer-P4 (designed binder)
chain: DVYHDGACPEVKPVDNFDWSQYHGKWWEVAKYPSKGGEKGKCGWAEYTPEGKSVKVSRYDVILSSEPFMEGTAYPVGDSKIGKIYHSRTKKGETKKTVFNVLSTDNKNYIIGYSCGYCECRKGHADHVWVLSRSMVLTGEAKTAVENYLIGSPVVDSQKLVYSDFSEAACKVNN
notes: Tested as expressed from pBBP47: C-terminal T7 tag followed by Strep-tag II
As to B1, the Kd in the experiment with type I horse ferritin [1] was 31 nM. For the same molecule, the binding result with RNaseB [2] is “no binding (tested: 1000 nM)”. The “signal-to-control ratio (ferritin against aldolase)” value (“signal-to-control ratio” below) with type I horse ferritin [3] was above 5.

B2: BBP mutein CD47-G6 (designed binder)
chain: DVYHDGACPEVKPVDNFDWSQYHGKWWEVAKYPNRREKFGKCGWAEYTPEGKSVKVSNYHVIRWGERFIEGTAYPVGDSKIGKIYHSLTLPGYTKENVFNVLSTDNKNYIIGYYCKYLERLKGHADFVWVLSRSMVLTGEAKTAVENYLIGSPVVDSQKLVYSDFSEAACKVNN
As for B2, in [4], the Kd came to 33 nM.

B3: BBP mutein Fer-N21 (designed binder)
chain: DVYHDGACPEVKPVDNFDWSQYHGKWWEVAKYPSNRGSKGKCGWAEYTPEGKSVKVSRYDVIPRLEAFMEGTAYPVGDSKIGKIYHSRTSKGKTKKTVFNVLSTDNKNYIIGYSCIYNERYKGHYDHVWVLSRSMVLTGEAKTAVENYLIGSPVVDSQKLVYSDFSEAACKVNN
notes: as for B1
In the case of B3, the Kd in the experiment with type I horse ferritin [1] stood at 29 nM. In addition, the “signal-to-control ratio” value in the experiment with type I horse ferritin [5] is above 5. Further, the binding result in the experiment with RNaseB [6] is “no binding (tested: dilution series starting from 1000 nM)”.

B4: BBP mutein Fer-I21 (designed binder)
chain: DVYHDGACPEVKPVDNFDWSQYHGKWWEVAKYPNQKEKWGKCGWAEYTPEGKSVKVSNYHVIKRPERFIEGTAYPVGDSKIGKIYHSLTRLGKTKENVFNVLSTDNKNYIIGYYCLYPEGWKGHKDFVWVLSRSMVLTGEAKTAVENYLIGSPVVDSQKLVYSDFSEAACKVNN
notes: as for B1
Regarding B4, the Kd in the experiment with type I horse ferritin [1] is 26 nM. Moreover, the “signal-to-control ratio” value in the experiment with type I horse ferritin [7] was above 5. The binding result with RNaseB [6] was “no binding (tested: dilution series starting from 1000 nM)”.

B5: BBP mutein Fer-D24 (designed binder)
chain: DVYHDGACPEVKPVDNFDWSQYHGKWWEVAKYPSKKGKQGKCGWAEYTPEGKSVKVSRYDVIPCLESFMEGTAYPVGDSKIGKIYHSRTKPGRTKKTVFNVPSTDNKNYIIGYSCVYPEGRKGHRDHVWVLSRSMVLTGEAKTAVENYLIGSPVVDSQKLVYSDFSEAACKVNN
notes: Tested only in the screening ELISA (crude extract, pBBP47: C-terminal T7 tag and Strep-tag II); KD not given
B5: the “signal-to-control ratio” value in the experiment with type I horse ferritin [8] is above 5.

B6: BBP mutein Fer-O20 (designed binder)
chain: DVYHDGACPEVKPVDNFDWSQYHGKWWEVAKCPSGKGRAGKCGWAEFTPEGKSVKVSRYDVIPAPELFMEGTAYPVGDPKIGKIYHSRTNKGLTKKTVFNVLSTDNKNYIIGYSCKYGEDQKGHKDHVWVLSRSMVLTGEAKTAVENYLIGSPVVDSQKLVYSDFSEAACKVNN
notes: as for B1
With B6, the Kd with type I horse ferritin [1] turned out to be 49 nM. Further, the “signal-to-control ratio” value with type I horse ferritin [9] is above 5. Further, in the experiment with RNaseB [6], the binding result was “no binding (tested: dilution series starting from 1000 nM)”.
